PMC8239413

Biological target: truncated RBD variant RBD-215 (amino acids R319-L533), plant-produced (SARS-CoV-2) (UniProt P0DTC2)
Experiment: SEC; IMAC-purified RBD-215 (Supplementary Figure 4)

truncated RBD variant RBD-215 (amino acids R319-L533), plant-produced (from UniProt P0DTC2 319-533) (domain or fragment)
percent dimers: 10%
